# B1: HSP90AB1 (parent)
# chain: YHTSQSGDEMTSLSEYVSRMKETQ
# B2: PLD5 (parent)
# chain: VTYMNMTAYNKGRLQSSFWIVDKQ
# Variants of: B1
# Experiment: protein stability index of a GFP-peptide fusion (GPS, HEK-293T) (PSI 1-6); higher = more stable
# Details: c terminus: a fixed tail appended
# 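Note: lentivirally expressed fusions sorted by FACS into six bins by GFP to DsRed ratio, PSI derived from sequencing read proportions per bin multiplied by bin number.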
row,Variant,protein stability index
1,M20N,4.1
2,M20P,4.44
3,M20Q,4.13
4,M20R,4.26
5,M20S,3.73
6,M20T,4.27
7,M20V,3.92
8,M20W,2.47
9,M20Y,3.55
10,K21A,3.71
11,K21C,3.47
12,K21D,4.08
13,K21E,4.2
14,K21F,2.84
15,K21G,3.84
16,K21H,3.52
17,K21L,3.52
18,K21M,3.13
19,K21N,3.88
20,K21P,3.63
21,K21Q,3.32
22,K21R,3.29
23,K21S,3.35
24,K21T,3.42
25,K21V,3.58
26,K21W,2.64
27,K21Y,2.61

row,Variant,protein stability index
1,E22A,3.07
2,E22C,4.17
3,E22D,3.83
4,E22F,3.71
5,E22G,3.33
6,E22H,3.05
7,E22I,3.89
8,E22K,3.63
9,E22L,3.54
10,E22M,3.31
11,E22N,3.84
12,E22P,3.17
13,E22Q,3.94
14,E22S,3
15,E22T,3.67
16,E22V,4.22
17,E22W,1.79
18,E22Y,3.44
19,T23A,3.81
20,T23C,3.23
21,T23D,4.52
22,T23E,2.89
23,T23G,4.12
24,T23H,3.59
25,T23I,3.63
26,T23K,3.78
27,T23L,3.57

row,Variant,protein stability index
1,T23M,3.29
2,T23N,3.88
3,T23P,3.33
4,T23Q,3.9
5,T23R,3.76
6,T23S,3.5
7,T23V,4.14
8,T23W,2.79
9,T23Y,3.16
10,Q24A,3.26
11,Q24C,3.18
12,Q24D,4.06
13,Q24E,3.94
14,Q24F,3.16
15,Q24G,3.52
16,Q24I,3.05
17,Q24K,3.43
18,Q24L,2.98
19,Q24M,3.2
20,Q24N,3.62
21,Q24P,3.43
22,Q24R,3.53
23,Q24S,3.61
24,Q24T,3.64
25,Q24V,3.19
26,Q24Y,3.1

# Variants of: B2
# Experiment: as above
# Details: c terminus: a fixed tail appended
row,Variant,protein stability index
1,V1A,1.44
2,V1C,1.49
3,V1D,1.78
4,V1E,2.35
5,V1G,2.21
6,V1H,1.61
7,V1K,2.73
8,V1L,1.97
9,V1M,2.45
10,V1N,2.88
11,V1P,2.11
12,V1Q,1.9
13,V1R,1.77
14,V1S,2.17
15,V1T,1.54
16,V1W,2.46
17,V1Y,3.25
18,T2A,2.55
19,T2C,2.25
20,T2D,1.67
21,T2E,1.87
22,T2G,2.08
23,T2H,2.6
24,T2I,1.76
25,T2K,2.52
26,T2M,2.88

row,Variant,protein stability index
1,T2N,1.29
2,T2P,1.68
3,T2Q,2.08
4,T2R,1.91
5,T2S,1.87
6,T2W,1.4
7,Y3A,1.99
8,Y3C,1.55
9,Y3D,3.2
10,Y3E,3.13
11,Y3F,2.88
12,Y3G,1.59
13,Y3H,1.67
14,Y3K,1.62
15,Y3M,2.14
16,Y3N,3.08
17,Y3P,2.06
18,Y3Q,1.76
19,Y3R,2.4
20,Y3S,2.51
21,Y3T,1.66
22,Y3V,2.33
23,Y3W,3.91
24,M4A,1.98
25,M4C,3.5
26,M4D,1.89

row,Variant,protein stability index
1,M4E,2.3
2,M4F,3.33
3,M4G,2.13
4,M4H,1.89
5,M4K,2.05
6,M4L,1.68
7,M4N,1.5
8,M4P,2.09
9,M4Q,2.18
10,M4R,1.34
11,M4S,3.45
12,M4T,2.44
13,M4V,3.21
14,M4Y,2.31
15,N5A,3.48
16,N5D,1.45
17,N5E,2.76
18,N5F,2.69
19,N5I,2.99
20,N5L,3
21,N5M,3.53
22,N5P,1.49
23,N5R,3.38
24,N5T,2.08
25,N5W,3.13
26,M6A,1.18

row,Variant,protein stability index
1,M6C,2.61
2,M6D,2.13
3,M6E,1.65
4,M6F,2.16
5,M6G,2.46
6,M6H,1.93
7,M6I,2.91
8,M6K,1.58
9,M6L,3.25
10,M6N,1.76
11,M6P,1.6
12,M6Q,2.1
13,M6R,2.06
14,M6S,1.87
15,M6T,1.58
16,M6V,2.89
17,M6Y,2.08
18,T7A,3.57
19,T7D,1.87
20,T7E,1.02
21,T7F,1.89
22,T7H,2.05
23,T7L,2.3
24,T7N,2.46
25,T7P,1.22
26,T7Q,2.36

row,Variant,protein stability index
1,T7S,2.21
2,T7V,2.61
3,A8C,2.68
4,A8D,1.1
5,A8E,1.46
6,A8F,2.41
7,A8G,2.11
8,A8H,1.93
9,A8I,3.64
10,A8K,1.95
11,A8L,2.22
12,A8M,2.46
13,A8N,2.29
14,A8P,3.56
15,A8Q,1.5
16,A8R,1.9
17,A8S,2.24
18,A8T,2.02
19,A8V,3.16
20,A8Y,2.39
21,Y9A,1.62
22,Y9C,2.55
23,Y9D,2.58
24,Y9E,2.11
25,Y9F,3.22
26,Y9G,2.11

row,Variant,protein stability index
1,Y9H,1.75
2,Y9I,2.59
3,Y9K,2.02
4,Y9L,1.92
5,Y9M,2.17
6,Y9N,1.78
7,Y9P,1.1
8,Y9Q,1.33
9,Y9R,1.58
10,Y9S,1.83
11,Y9T,2.06
12,Y9V,1.81
13,Y9W,3.74
14,N10A,2.67
15,N10C,2.87
16,N10D,2.75
17,N10E,3.78
18,N10H,1.97
19,N10K,1.89
20,N10L,1.28
21,N10M,3.39
22,N10P,2
23,N10Q,2.97
24,N10R,2.25
25,N10S,1.95
26,N10T,2.49

row,Variant,protein stability index
1,N10W,3.08
2,N10Y,2.25
3,K11A,1.36
4,K11D,1.96
5,K11E,3.5
6,K11G,1.65
7,K11H,1.95
8,K11I,3.18
9,K11L,3.44
10,K11N,3.07
11,K11P,2.17
12,K11Q,1.84
13,K11R,1.96
14,K11S,2.96
15,K11T,2.14
16,K11W,1.68
17,K11Y,3.58
18,G12A,1.89
19,G12C,1.53
20,G12D,3.02
21,G12E,1.8
22,G12F,3.77
23,G12H,1.15
24,G12K,2.31
25,G12L,4.29
26,G12M,2.18

row,Variant,protein stability index
1,G12Q,1.37
2,G12R,1.58
3,G12S,2.38
4,G12T,1.8
5,G12V,1.91
6,G12Y,2.49
7,R13A,3.25
8,R13D,3.06
9,R13E,1.73
10,R13G,1.6
11,R13H,3.22
12,R13I,2.15
13,R13K,1.27
14,R13L,1.51
15,R13M,2.14
16,R13N,1.52
17,R13Q,2.13
18,R13S,1.59
19,R13T,1.48
20,R13W,4.66
21,R13Y,2.93
22,L14A,2.63
23,L14D,2.06
24,L14E,1.62
25,L14F,1.93
26,L14K,2.29

row,Variant,protein stability index
1,L14M,2.88
2,L14N,1.29
3,L14P,2.86
4,L14Q,1.25
5,L14R,2.06
6,L14S,2.72
7,L14T,2.14
8,L14V,1.84
9,L14W,2.63
10,L14Y,2.04
11,Q15A,3.27
12,Q15D,1.63
13,Q15E,1.94
14,Q15F,1.61
15,Q15G,2.44
16,Q15H,2.42
17,Q15I,2.03
18,Q15K,1.03
19,Q15L,2.49
20,Q15M,2.46
21,Q15N,3.18
22,Q15P,2.48
23,Q15R,3.58
24,Q15T,4.18
25,Q15V,4.47
26,Q15W,2.58

row,Variant,protein stability index
1,S16A,3.62
2,S16D,2.08
3,S16F,3.61
4,S16H,2.01
5,S16I,2.81
6,S16K,1.63
7,S16N,1.21
8,S16P,1.1
9,S16Q,2.42
10,S16R,1.28
11,S16T,3.01
12,S16W,3.41
13,S16Y,4.23
14,S17A,2.28
15,S17C,2.28
16,S17D,2.15
17,S17G,1.73
18,S17H,1.93
19,S17K,2.12
20,S17L,1.12

# Reference: the supplement of paper PMC10567573
